Laboratory results as given in paper PMC10786891, “Massively parallel profiling of RNA-targeting CRISPR-Cas13d”.

T1: EsCas13d, nuclease-dead (Eubacterium siraeum, UniProt B0MS50, R295A;H300A;R849A;H854A)
T1 sequence: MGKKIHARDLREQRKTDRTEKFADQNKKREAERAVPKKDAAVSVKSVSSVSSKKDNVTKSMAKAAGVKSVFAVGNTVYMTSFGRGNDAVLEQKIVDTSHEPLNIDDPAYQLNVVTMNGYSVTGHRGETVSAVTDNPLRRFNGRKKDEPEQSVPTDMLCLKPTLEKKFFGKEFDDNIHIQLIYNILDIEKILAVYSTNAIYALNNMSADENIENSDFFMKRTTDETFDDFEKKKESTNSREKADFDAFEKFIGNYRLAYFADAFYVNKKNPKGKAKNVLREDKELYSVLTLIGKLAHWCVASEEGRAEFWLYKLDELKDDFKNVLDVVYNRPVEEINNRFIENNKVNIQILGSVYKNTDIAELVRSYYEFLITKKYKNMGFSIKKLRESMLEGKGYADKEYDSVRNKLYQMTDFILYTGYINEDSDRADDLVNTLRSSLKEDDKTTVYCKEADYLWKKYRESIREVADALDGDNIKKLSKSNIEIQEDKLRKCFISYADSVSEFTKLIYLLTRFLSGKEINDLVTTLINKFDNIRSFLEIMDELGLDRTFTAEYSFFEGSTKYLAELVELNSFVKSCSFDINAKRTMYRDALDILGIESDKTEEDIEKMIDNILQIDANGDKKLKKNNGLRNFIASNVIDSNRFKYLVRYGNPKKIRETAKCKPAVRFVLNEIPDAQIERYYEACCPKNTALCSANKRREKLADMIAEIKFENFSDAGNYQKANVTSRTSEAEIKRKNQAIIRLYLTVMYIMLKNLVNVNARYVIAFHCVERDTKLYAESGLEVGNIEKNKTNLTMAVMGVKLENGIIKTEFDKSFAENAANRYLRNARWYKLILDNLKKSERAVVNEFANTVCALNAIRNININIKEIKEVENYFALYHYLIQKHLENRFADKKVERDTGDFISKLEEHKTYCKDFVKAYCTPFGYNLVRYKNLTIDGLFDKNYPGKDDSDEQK

B1: target 1 insC 3' of 20,insA 3' of 8 (mixed)
RNA 1: CACCCGUGCAAAAAUGCAGGGGUCUAAAACUGAGCGGAUAACCUCUCUAUGG
RNA 2: GGGAAUGGAUCCACAUCUACGAAUUCGUACCACUAGAGAGGUUAUACCGCUCACCGAGAUCGGAAGAGCACACGU
B2: target 1 insA 3' of 11,insU 3' of 9 (mixed)
RNA 1: CACCCGUGCAAAAAUGCAGGGGUCUAAAACUGAGCGGAUAACCUCUCUAUGG
RNA 2: GGGAAUGGAUCCACAUCUACGAAUUCGUACCAUAGAGAGGUAUAUUCCGCUCACCGAGAUCGGAAGAGCACACGU
B3: target 1 U8G,A18U (mixed)
RNA 1: CACCCGUGCAAAAAUGCAGGGGUCUAAAACUGAGCGGAUAACCUCUCUAUGG
RNA 2: GGGAAUGGAUCCACAUCUACGAAUUCGUACCAUUGAGAGGUUAGCCGCUCACCGAGAUCGGAAGAGCACACGU
B4: target 1 insA 3' of 19,insU 3' of 1 (mixed)
RNA 1: CACCCGUGCAAAAAUGCAGGGGUCUAAAACUGAGCGGAUAACCUCUCUAUGG
RNA 2: GGGAAUGGAUCCACAUCUACGAAUUCGUACCAUAAGAGAGGUUAUCCGCUCAUCCGAGAUCGGAAGAGCACACGU
B5: target 1 insA 3' of 17,insA 3' of 7 (mixed)
RNA 1: CACCCGUGCAAAAAUGCAGGGGUCUAAAACUGAGCGGAUAACCUCUCUAUGG
RNA 2: GGGAAUGGAUCCACAUCUACGAAUUCGUACCAUAGAAGAGGUUAUCACGCUCACCGAGAUCGGAAGAGCACACGU
B6: target 1 insU 3' of 18,insG 3' of 10 (mixed)
RNA 1: CACCCGUGCAAAAAUGCAGGGGUCUAAAACUGAGCGGAUAACCUCUCUAUGG
RNA 2: GGGAAUGGAUCCACAUCUACGAAUUCGUACCAUAUGAGAGGUUGAUCCGCUCACCGAGAUCGGAAGAGCACACGU
B7: target 1 insC 3' of 13,insG 3' of 6 (mixed)
RNA 1: CACCCGUGCAAAAAUGCAGGGGUCUAAAACUGAGCGGAUAACCUCUCUAUGG
RNA 2: GGGAAUGGAUCCACAUCUACGAAUUCGUACCAUAGAGAGCGUUAUCCGGCUCACCGAGAUCGGAAGAGCACACGU
B8: target 1 del1,del5 (mixed)
RNA 1: CACCCGUGCAAAAAUGCAGGGGUCUAAAACUGAGCGGAUAACCUCUCUAUGG
RNA 2: GGGAAUGGAUCCACAUCUACGAAUUCGUACCAUAGAGAGGUUAUCCCUCCCGAGAUCGGAAGAGCACACGU
B9: target 1 A9U,C21A (mixed)
RNA 1: CACCCGUGCAAAAAUGCAGGGGUCUAAAACUGAGCGGAUAACCUCUCUAUGG
RNA 2: GGGAAUGGAUCCACAUCUACGAAUUCGUACAAUAGAGAGGUUUUCCGCUCACCGAGAUCGGAAGAGCACACGU
B10: target 1 U8A,G13A (mixed)
RNA 1: CACCCGUGCAAAAAUGCAGGGGUCUAAAACUGAGCGGAUAACCUCUCUAUGG
RNA 2: GGGAAUGGAUCCACAUCUACGAAUUCGUACCAUAGAGAAGUUAACCGCUCACCGAGAUCGGAAGAGCACACGU
B11: target 1 A14G,C22A (mixed)
RNA 1: CACCCGUGCAAAAAUGCAGGGGUCUAAAACUGAGCGGAUAACCUCUCUAUGG
RNA 2: GGGAAUGGAUCCACAUCUACGAAUUCGUAACAUAGAGGGGUUAUCCGCUCACCGAGAUCGGAAGAGCACACGU
B12: target 1 C4G,U19G (mixed)
RNA 1: CACCCGUGCAAAAAUGCAGGGGUCUAAAACUGAGCGGAUAACCUCUCUAUGG
RNA 2: GGGAAUGGAUCCACAUCUACGAAUUCGUACCAGAGAGAGGUUAUCCGGUCACCGAGAUCGGAAGAGCACACGU
B13: target 1 insC 3' of 22,insG 3' of 2 (mixed)
RNA 1: CACCCGUGCAAAAAUGCAGGGGUCUAAAACUGAGCGGAUAACCUCUCUAUGG
RNA 2: GGGAAUGGAUCCACAUCUACGAAUUCGUACCCAUAGAGAGGUUAUCCGCUCGACCGAGAUCGGAAGAGCACACGU

The binders below were run against T1, EsCas13d, nuclease-dead (assay: crRNA (strand 1, pre-loaded); Mg2+; 40 mM Tris-HCl pH 7.5, 150 mM NaCl, 6 mM MgCl2, 1 mM DTT, 0.1% Tween-20, 0.2 mg/ml BSA; 25 C; 10 min per concentration, then washed). Details: tags: His6-TwinStrep-SUMO cleaved; N-terminal SNAP kept (SNAP-Surface 488); label: 3' end held by stalled T7 RNA polymerase.

**Q.** Which Kd does the source give for B1 here?
**A.** 9.6 ± 0.5 nM

**Q.** For B2, which Kd is on record?
**A.** 27.8 ± 2.2 nM

**Q.** With B3 as the binder, how does the Kd read?
**A.** 80 ± 19 nM

**Q.** B4 was tested. Which Kd did it give?
**A.** 20 ± 1.7 nM

**Q.** Which Kd does the source give for B5 here?
**A.** 10.4 ± 0.5 nM

**Q.** B6 was tested. Which Kd did it give?
**A.** 68 ± 22 nM

**Q.** Which Kd does the source give for B7 here?
**A.** 14.6 ± 1.6 nM

**Q.** B8 was tested. Which Kd did it give?
**A.** 20.4 ± 1.2 nM

**Q.** With B9 as the binder, how does the Kd read?
**A.** 35.8 ± 2.3 nM

**Q.** How did the Kd turn out when B10 was run?
**A.** 15 ± 0.7 nM

**Q.** B11 was tested. Which Kd did it give?
**A.** 40 ± 4 nM

**Q.** B12 was tested. Which Kd did it give?
**A.** 100 ± 50 nM

**Q.** How did the Kd turn out when B13 was run?
**A.** 21.1 ± 3.2 nM
